# Where “and” joins values, the source holds several entries; their conditions need not be identical. Equal values may be shown once.
# B1: Lysozyme C, P61626 (parent)
# chain: MKALIVLGLVLLSVTVQGKVFERCELARTLKRLGMDGYRGISLANWMCLAKWESGYNTRATNYNAGDRSTDYGIFQINSRYWCNDGKTPGAVNACHLSCSALLQDNIADAVACAKRVVRDPQGIRAWVAWRNRCQNRDVRQYVQGCGV
# Variants of: B1
# Conditions: Homo sapiens; pH 2.5; Thermal; DSC; glycine-HCl 0.05 M; reversible: yes; structure 1LZ1; whole UniProt chain shown
Variant,Tm [°C],unfolding enthalpy (calorimetric) [kcal/mol]
MKALIVLGLVLLSVTVQGKIFERCELARTLKRLGMDGYRGISLANWMCLAKWESGYNTRATNYNAGDRSTDYGIFQINSRYWCNDGKTPGAVNACHLSCSALLQDNIADAVACAKRVVRDPQGIRAWVAWRNRCQNRDVRQYVQGCGV [V20I],65.1,108
MKALIVLGLVLLSVTVQGKVFERCELARTLKRLGMDGYRGISLANWMCLAKWESGYNTRATNYNAGDRSTDYGIFQINSRYWCNDGKTPGALNACHLSCSALLQDNIADAVACAKRVVRDPQGIRAWVAWRNRCQNRDVRQYVQGCGV [V92L],62.4,100

# Same assay, conditions: Homo sapiens; pH 2.7; 64.9 °C; Thermal; DSC; glycine-HCl 0.05 M; reversible: yes; structure 1LZ1; whole UniProt chain shown
row,Variant,ddG of mutation (higher = less stable) [kcal/mol]
1,MKALIVLGLVLLSVTVQGKIFERCELARTLKRLGMDGYRGISLANWMCLAKWESGYNTRATNYNAGDRSTDYGIFQINSRYWCNDGKTPGAVNACHLSCSALLQDNIADAVACAKRVVRDPQGIRAWVAWRNRCQNRDVRQYVQGCGV [V20I],-1.1
2,MKALIVLGLVLLSVTVQGKMFERCELARTLKRLGMDGYRGISLANWMCLAKWESGYNTRATNYNAGDRSTDYGIFQINSRYWCNDGKTPGAVNACHLSCSALLQDNIADAVACAKRVVRDPQGIRAWVAWRNRCQNRDVRQYVQGCGV [V20M],0.31
3,MKALIVLGLVLLSVTVQGKVFERCELARTLKRLGMDGYRGISLANWMCLAKWESGYNTRATNYNAGDRSTDYGIFQINSRYWCNDGKTPGALNACHLSCSALLQDNIADAVACAKRVVRDPQGIRAWVAWRNRCQNRDVRQYVQGCGV [V92L],-0.19

# Same assay, conditions: Homo sapiens; pH 2.7; Thermal; DSC; glycine-HCl 0.05 M; reversible: yes; structure 1LZ1; whole UniProt chain shown
Variant,Tm,"change of melting temperature, mutant - wild type (higher = more stable) [°C]",heat capacity change of unfolding [kcal/mol/K],unfolding enthalpy (calorimetric)
MKALIVLGLVLLSVTVQGKIFERCELARTLKRLGMDGYRGISLANWMCLAKWESGYNTRATNYNAGDRSTDYGIFQINSRYWCNDGKTPGAVNACHLSCSALLQDNIADAVACAKRVVRDPQGIRAWVAWRNRCQNRDVRQYVQGCGV [V20I],68 °C and 68.3 °C and 64.9 °C,3.4,1.58,114 kcal/mol and 108 kcal/mol
MKALIVLGLVLLSVTVQGKMFERCELARTLKRLGMDGYRGISLANWMCLAKWESGYNTRATNYNAGDRSTDYGIFQINSRYWCNDGKTPGAVNACHLSCSALLQDNIADAVACAKRVVRDPQGIRAWVAWRNRCQNRDVRQYVQGCGV [V20M],63.9 °C,-1,1.55,113 kcal/mol
MKALIVLGLVLLSVTVQGKVFERCELARTLKRLGMDGYRGISLANWMCLAKWESGYNTRATNYNAGDRSTDYGIFQINSRYWCNDGKTPGALNACHLSCSALLQDNIADAVACAKRVVRDPQGIRAWVAWRNRCQNRDVRQYVQGCGV [V92L],65.3 °C and 65.5 °C and 64.9 °C,0.6,1.27,104 kcal/mol and 103 kcal/mol

# Same assay, conditions: Homo sapiens; pH 2.92; Thermal; DSC; glycine-HCl 0.05 M; reversible: yes; structure 1LZ1; whole UniProt chain shown
Variant,Tm [°C],unfolding enthalpy (calorimetric) [kcal/mol]
MKALIVLGLVLLSVTVQGKIFERCELARTLKRLGMDGYRGISLANWMCLAKWESGYNTRATNYNAGDRSTDYGIFQINSRYWCNDGKTPGAVNACHLSCSALLQDNIADAVACAKRVVRDPQGIRAWVAWRNRCQNRDVRQYVQGCGV [V20I],72.2,119

# Same assay, conditions: Homo sapiens; pH 3.13; Thermal; DSC; glycine-HCl 0.05 M; reversible: yes; structure 1LZ1; whole UniProt chain shown
Variant,Tm [°C],unfolding enthalpy (calorimetric) [kcal/mol]
MKALIVLGLVLLSVTVQGKIFERCELARTLKRLGMDGYRGISLANWMCLAKWESGYNTRATNYNAGDRSTDYGIFQINSRYWCNDGKTPGAVNACHLSCSALLQDNIADAVACAKRVVRDPQGIRAWVAWRNRCQNRDVRQYVQGCGV [V20I],75.5,125

# Same assay, conditions: Homo sapiens; pH 2.52; Thermal; DSC; glycine-HCl 0.05 M; reversible: yes; structure 1LZ1; whole UniProt chain shown
Variant,Tm [°C],unfolding enthalpy (calorimetric) [kcal/mol]
MKALIVLGLVLLSVTVQGKMFERCELARTLKRLGMDGYRGISLANWMCLAKWESGYNTRATNYNAGDRSTDYGIFQINSRYWCNDGKTPGAVNACHLSCSALLQDNIADAVACAKRVVRDPQGIRAWVAWRNRCQNRDVRQYVQGCGV [V20M],60.6,106

# Same assay, conditions: Homo sapiens; pH 2.73; Thermal; DSC; glycine-HCl 0.05 M; reversible: yes; structure 1LZ1; whole UniProt chain shown
Variant,Tm [°C],unfolding enthalpy (calorimetric) [kcal/mol]
MKALIVLGLVLLSVTVQGKMFERCELARTLKRLGMDGYRGISLANWMCLAKWESGYNTRATNYNAGDRSTDYGIFQINSRYWCNDGKTPGAVNACHLSCSALLQDNIADAVACAKRVVRDPQGIRAWVAWRNRCQNRDVRQYVQGCGV [V20M],64.5,112

# Same assay, conditions: Homo sapiens; pH 2.94; Thermal; DSC; glycine-HCl 0.05 M; reversible: yes; structure 1LZ1; whole UniProt chain shown
Variant,Tm [°C],unfolding enthalpy (calorimetric) [kcal/mol]
MKALIVLGLVLLSVTVQGKMFERCELARTLKRLGMDGYRGISLANWMCLAKWESGYNTRATNYNAGDRSTDYGIFQINSRYWCNDGKTPGAVNACHLSCSALLQDNIADAVACAKRVVRDPQGIRAWVAWRNRCQNRDVRQYVQGCGV [V20M],68.3,118

# Same assay, conditions: Homo sapiens; pH 3.09; Thermal; DSC; glycine-HCl 0.05 M; reversible: yes; structure 1LZ1; whole UniProt chain shown
Variant,Tm [°C],unfolding enthalpy (calorimetric) [kcal/mol]
MKALIVLGLVLLSVTVQGKMFERCELARTLKRLGMDGYRGISLANWMCLAKWESGYNTRATNYNAGDRSTDYGIFQINSRYWCNDGKTPGAVNACHLSCSALLQDNIADAVACAKRVVRDPQGIRAWVAWRNRCQNRDVRQYVQGCGV [V20M],70.6,122

# Same assay, conditions: Homo sapiens; pH 3.31; Thermal; DSC; glycine-HCl 0.05 M; reversible: yes; structure 1LZ1; whole UniProt chain shown
Variant,Tm [°C],unfolding enthalpy (calorimetric) [kcal/mol]
MKALIVLGLVLLSVTVQGKMFERCELARTLKRLGMDGYRGISLANWMCLAKWESGYNTRATNYNAGDRSTDYGIFQINSRYWCNDGKTPGAVNACHLSCSALLQDNIADAVACAKRVVRDPQGIRAWVAWRNRCQNRDVRQYVQGCGV [V20M],74.2,127

# Same assay, conditions: Homo sapiens; pH 2.83; Thermal; DSC; glycine-HCl 0.05 M; reversible: yes; structure 1LZ1; whole UniProt chain shown
Variant,Tm [°C],unfolding enthalpy (calorimetric) [kcal/mol]
MKALIVLGLVLLSVTVQGKVFERCELARTLKRLGMDGYRGISLANWMCLAKWESGYNTRATNYNAGDRSTDYGIFQINSRYWCNDGKTPGALNACHLSCSALLQDNIADAVACAKRVVRDPQGIRAWVAWRNRCQNRDVRQYVQGCGV [V92L],67.5,107

# Same assay, conditions: Homo sapiens; pH 3.05; Thermal; DSC; glycine-HCl 0.05 M; reversible: yes; structure 1LZ1; whole UniProt chain shown
Variant,Tm [°C],unfolding enthalpy (calorimetric) [kcal/mol]
MKALIVLGLVLLSVTVQGKVFERCELARTLKRLGMDGYRGISLANWMCLAKWESGYNTRATNYNAGDRSTDYGIFQINSRYWCNDGKTPGALNACHLSCSALLQDNIADAVACAKRVVRDPQGIRAWVAWRNRCQNRDVRQYVQGCGV [V92L],71.6,112

# Same assay, conditions: Homo sapiens; pH 3.15; Thermal; DSC; glycine-HCl 0.05 M; reversible: yes; structure 1LZ1; whole UniProt chain shown
Variant,Tm [°C],unfolding enthalpy (calorimetric) [kcal/mol]
MKALIVLGLVLLSVTVQGKVFERCELARTLKRLGMDGYRGISLANWMCLAKWESGYNTRATNYNAGDRSTDYGIFQINSRYWCNDGKTPGALNACHLSCSALLQDNIADAVACAKRVVRDPQGIRAWVAWRNRCQNRDVRQYVQGCGV [V92L],73.3,114

# — FireProtDB (doi:10.1021/bi0015717)
